Test results as given in patent US6623738 (University of California, dated 2003).

Columns and labels:
[1] = biological target: T1, AP fusion with Drosophila D-Sema II (Drosophila, UniProt Q24323 26-724); experiment: AP fusion binding to transfected COS cells
T1 construct: also called Drosophila Sema II; not shown: alkaline phosphatase (AP) reporter
T1 sequence (looked up): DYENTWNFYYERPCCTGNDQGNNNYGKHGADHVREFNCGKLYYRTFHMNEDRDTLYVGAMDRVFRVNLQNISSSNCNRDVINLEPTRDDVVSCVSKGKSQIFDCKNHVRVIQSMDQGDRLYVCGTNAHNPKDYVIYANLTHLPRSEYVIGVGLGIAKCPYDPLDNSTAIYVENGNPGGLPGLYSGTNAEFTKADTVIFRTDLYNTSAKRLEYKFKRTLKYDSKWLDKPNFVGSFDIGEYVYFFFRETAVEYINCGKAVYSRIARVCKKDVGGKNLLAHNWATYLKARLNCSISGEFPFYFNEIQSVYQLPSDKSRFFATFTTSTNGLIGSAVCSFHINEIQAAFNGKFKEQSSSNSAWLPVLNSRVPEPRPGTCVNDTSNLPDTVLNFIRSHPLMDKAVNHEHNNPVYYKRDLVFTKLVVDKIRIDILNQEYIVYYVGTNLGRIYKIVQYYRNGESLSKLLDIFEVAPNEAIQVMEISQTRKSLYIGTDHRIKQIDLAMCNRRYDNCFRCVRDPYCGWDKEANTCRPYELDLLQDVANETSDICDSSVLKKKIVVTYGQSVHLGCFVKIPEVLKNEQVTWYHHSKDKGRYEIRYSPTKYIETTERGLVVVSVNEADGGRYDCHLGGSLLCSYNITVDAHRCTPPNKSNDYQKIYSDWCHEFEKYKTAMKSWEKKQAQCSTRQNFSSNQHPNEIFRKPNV

[2] = biological target: T2, Sema E-AP fusion protein (mouse Sema E fused to alkaline phosphatase) (mouse, UniProt Q62181 21-751); experiment: AP fusion binding to transfected COS cells
T2 construct: written as in the name; Partially purified conditioned medium; not shown: secreted alkaline phosphatase of vector APtag-4
T2 sequence (looked up): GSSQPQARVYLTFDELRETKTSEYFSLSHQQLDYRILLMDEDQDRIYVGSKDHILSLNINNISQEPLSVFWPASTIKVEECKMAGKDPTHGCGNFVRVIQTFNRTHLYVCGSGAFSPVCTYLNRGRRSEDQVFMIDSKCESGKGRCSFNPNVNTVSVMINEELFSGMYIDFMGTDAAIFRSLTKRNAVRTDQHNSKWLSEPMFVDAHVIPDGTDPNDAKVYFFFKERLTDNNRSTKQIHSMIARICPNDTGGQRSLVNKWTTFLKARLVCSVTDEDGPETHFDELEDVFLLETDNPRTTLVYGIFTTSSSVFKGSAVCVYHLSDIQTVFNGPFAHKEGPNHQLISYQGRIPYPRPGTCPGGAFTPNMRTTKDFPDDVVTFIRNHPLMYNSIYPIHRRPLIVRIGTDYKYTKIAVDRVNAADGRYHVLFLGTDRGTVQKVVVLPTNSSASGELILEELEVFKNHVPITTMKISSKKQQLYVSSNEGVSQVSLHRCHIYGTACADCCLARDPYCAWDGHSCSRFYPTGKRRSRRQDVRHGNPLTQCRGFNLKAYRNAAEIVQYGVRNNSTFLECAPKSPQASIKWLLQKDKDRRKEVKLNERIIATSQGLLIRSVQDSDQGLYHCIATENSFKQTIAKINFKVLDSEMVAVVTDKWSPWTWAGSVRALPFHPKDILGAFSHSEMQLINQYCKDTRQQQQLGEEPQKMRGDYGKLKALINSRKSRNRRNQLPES

[3] = biological target: T3, AP fusion with the ectodomain of Sema VIa (UniProt O35464 19-649); experiment: AP fusion binding to transfected COS cells
T3 construct: extracellular domain; also called Sema VIa ectodomain; not shown: alkaline phosphatase (AP) reporter
T3 sequence (looked up): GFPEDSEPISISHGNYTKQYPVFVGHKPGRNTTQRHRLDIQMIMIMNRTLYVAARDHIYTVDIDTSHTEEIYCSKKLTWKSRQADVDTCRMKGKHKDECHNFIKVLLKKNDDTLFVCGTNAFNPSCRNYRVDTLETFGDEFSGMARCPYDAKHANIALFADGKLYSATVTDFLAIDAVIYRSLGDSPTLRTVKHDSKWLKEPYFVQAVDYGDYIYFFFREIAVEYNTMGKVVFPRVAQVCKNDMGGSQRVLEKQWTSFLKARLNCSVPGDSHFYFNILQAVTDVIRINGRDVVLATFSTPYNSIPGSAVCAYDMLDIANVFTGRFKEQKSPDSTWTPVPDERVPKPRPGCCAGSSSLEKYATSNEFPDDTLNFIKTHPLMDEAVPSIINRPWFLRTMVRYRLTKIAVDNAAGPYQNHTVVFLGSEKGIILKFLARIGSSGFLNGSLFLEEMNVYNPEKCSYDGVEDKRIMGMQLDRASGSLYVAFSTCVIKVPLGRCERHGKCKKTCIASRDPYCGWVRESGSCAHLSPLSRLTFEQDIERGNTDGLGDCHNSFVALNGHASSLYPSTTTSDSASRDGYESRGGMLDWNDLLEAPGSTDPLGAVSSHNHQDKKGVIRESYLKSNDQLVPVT

[4] = biological target: T4, alkaline phosphatase (AP) alone (UniProt P05187 23-511); experiment: AP histochemistry on transfected COS cells
T4 construct: Control protein; also called alkaline phosphatase protein
T4 sequence (P05187 23-511 limits assumed): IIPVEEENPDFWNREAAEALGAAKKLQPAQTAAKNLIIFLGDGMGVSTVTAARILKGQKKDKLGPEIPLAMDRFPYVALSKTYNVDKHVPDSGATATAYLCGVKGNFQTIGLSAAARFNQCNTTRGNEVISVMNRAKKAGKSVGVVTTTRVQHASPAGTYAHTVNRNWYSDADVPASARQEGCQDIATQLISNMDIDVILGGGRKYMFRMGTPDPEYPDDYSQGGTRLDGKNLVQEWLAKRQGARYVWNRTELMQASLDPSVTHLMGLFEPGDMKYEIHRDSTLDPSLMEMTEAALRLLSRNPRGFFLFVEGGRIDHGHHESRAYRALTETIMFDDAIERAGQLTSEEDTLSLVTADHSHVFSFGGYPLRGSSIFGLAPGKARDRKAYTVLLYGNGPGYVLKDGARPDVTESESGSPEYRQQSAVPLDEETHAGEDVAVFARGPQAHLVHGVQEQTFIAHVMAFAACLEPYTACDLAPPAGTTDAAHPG

B1: mouse neuropilin-2(b5), myc-tagged, expressed in COS-7 cells (receptor, not shown: small tags and cut ends)
chain: RSQQDPPCGGRPNSKDAGYITSPGYPQDYPSHQNCEWIVYAPEPNQKIVLNFNPHFEIEKHDCKYDFIEIRDGDSESADLLGKHCGNIAPPTIISSGSVLYIKFTSDYARQGAGFSLRYEIFKTGSEDCSKNFTSPNGTIESPGFPEKYPHNLDCTFTILAKPRMEIILQFLTFDLEHDPLQVGEGDCKYDWLDIWDGIPHVGPLIGKYCGTKTPSKLRSSTGILSLTFHTDMAVAKDGFSARYYLIHQEPPENFQCNVPLGMESGRIANEQISASSTFSDGRWTPQQSRLHGDDNGWTPNLDSNKEYLQVDLRFLTMLTAIATQGAISRETQKGYYVKSYKLEVSTNGEDWMVYRHGKNHKIFQANNDATEVVLNKLHMPLLTRFIRIRPQTWHLGIALRLELFGCRVTDAPCSNMLGMLSGLIADTQISASSTREYLWSPSAARLVSSRSGWFPRNPQAQPGEEWLQVDLGTPKTVKGVIIQGARGGDSITAVEARAFVRKFKVSYSLNGKDWEYIQDPRTQQTKLFEGNMHYDTPDIRRFDPVPAQYVRVYPERWSPAGIGMRLEVLGCDWTDSKPTVETLGPTVKSEETTTPYPMDEDATECGENCSFEDDKDLQLPSGFNCNFDFPEETCGWVYDHAKWLRSTWISSANPNDRTFPDDKNFLKLQSDGRREGQYGRLISPPVHLPRSPVCMEFQYQAMGGHGVALQVVREASQESKLLWVIREDQGSEWKHGRIILPSYDMEYQIVFEGVIGKGRSGEISIDDIRISTDVPLENCMEPISAFAGEDFKGGTLPPGTEPTVDTVPVQPIPAYWYYVMAAGGAVLVLASVVLALVLHYHRFRYAAKKTDHSITYKTSHYTNGAPLAVEPTLTIKLEQERGSHC
notes: also called b5 isoform of neuropilin-2; SR2(b)5
[1]
  binding result: no binding
[2]
  binding result: binds
[3]
  binding result: no binding
[4]
  binding result: no binding
